# Assay results: patent US20190183976A1 (GPCR THERAPEUTICS, published 2019)
# Read-outs that look alike come from different tables or passages of the source.
# Assays:
# CXCR4-VN [1] = target: T1, CXCR4-VN (human, UniProt P61073 1-352); assay: BiFC, U-2 OS cells, CXCR4-VN & GPCRx-VC; score=(positive cells/total cells)x100
# T1 construct: whole, on cells; Adenovirus-expressed in U-2 OS cells; also called CXCR4 fused with N-terminal fragment of Venus; not shown: VNm10, N-terminal fragment of Venus (VN154 variant with L46F and L64F)
# Description: (§1) Images of about 200 cells from each well were analyzed with Multi-target analysis software in IN Cell Developer ToolBox (GE Healthcare, Waukesha, Wis.). Cell boundary was marked based on Hoechst signal, and fluorescence intensity per cell was measured. Cells with fluorescence intensities higher than background level were considered as BiFC positive cells. […] Positive cells were determined, and positive cell count ratio (“BiFC score”) was calculated as (positive cells/total cells)×100 (see Table 4 below).
# CXCR4-VN [2] = target: T1, CXCR4-VN; assay: as above; remark: listed apart in the source
# Description: as §1
Binder,BiFC score (CXCR4-VN [1]),BiFC score (CXCR4-VN [2])
"TACR3-VC (receptor, human, UniProt P29371 1-465, looked up, whole, on cells; Adenovirus-expressed in U-2 OS cells; not shown: VC155, C-terminal fragment of Venus) MATLPAAETWIDGGGGVGADAVNLTASLAAGAATGAVETGWLQLLDQAGNLSSSPSALGLPVASPAPSQPWANLTNQFVQPSWRIALWSLAYGVVVAVAVLGNLIVIWIILAHKRMRTVTNYFLVNLAFSDASMAAFNTLVNFIYALHSEWYFGANYCRFQNFFPITAVFASIYSMTAIAVDRYMAIIDPLKPRLSATATKIVIGSIWILAFLLAFPQCLYSKTKVMPGRTLCFVQWPEGPKQHFTYHIIVIILVYCFPLLIMGITYTIVGITLWGGEIPGDTCDKYHEQLKAKRKVVKMMIIVVMTFAICWLPYHIYFILTAIYQQLNRWKYIQQVYLASFWLAMSSTMYNPIIYCCLNKRFRAGFKRAFRWCPFIKVSSYDELELKTTRFHPNRQSSMYTVTRMESMTVVFDPNDADTTRSSRKKRATPRDPSFNGCSRRNSKSASATSSFISSPYTSVDEYS",33,
"C5AR1-VC (receptor, human, UniProt P21730 1-350, looked up, whole, on cells; Adenovirus-expressed in U-2 OS cells; not shown: VC155, C-terminal fragment of Venus) MDSFNYTTPDYGHYDDKDTLDLNTPVDKTSNTLRVPDILALVIFAVVFLVGVLGNALVVWVTAFEAKRTINAIWFLNLAVADFLSCLALPILFTSIVQHHHWPFGGAACSILPSLILLNMYASILLLATISADRFLLVFKPIWCQNFRGAGLAWIACAVAWGLALLLTIPSFLYRVVREEYFPPKVLCGVDYSHDKRRERAVAIVRLVLGFLWPLLTLTICYTFILLRTWSRRATRSTKTLKVVVAVVASFFIFWLPYQVTGIMMSFLEPSSPTFLLLKKLDSLCVSFAYINCCINPIIYVVAGQGFQGRLRKSLPSLLRNVLTEESVVRESKSFTRSTVDTMAQKTQAV",42,
"ADORA3-VC (receptor, human, UniProt P0DMS8 1-318, looked up, whole, on cells; Adenovirus-expressed in U-2 OS cells; not shown: VC155, C-terminal fragment of Venus) MPNNSTALSLANVTYITMEIFIGLCAIVGNVLVICVVKLNPSLQTTTFYFIVSLALADIAVGVLVMPLAIVVSLGITIHFYSCLFMTCLLLIFTHASIMSLLAIAVDRYLRVKLTVRYKRVTTHRRIWLALGLCWLVSFLVGLTPMFGWNMKLTSEYHRNVTFLSCQFVSVMRMDYMVYFSFLTWIFIPLVVMCAIYLDIFYIIRNKLSLNLSNSKETGAFYGREFKTAKSLFLVLFLFALSWLPLSIINCIIYFNGEVPQLVLYMGILLSHANSMMNPIVYAYKIKKFKETYLLILKACVVCHPSDSLDTSIEKNSE",43,
"CALCR-VC (receptor, human, UniProt P30988 25-474, looked up, whole, on cells; Adenovirus-expressed in U-2 OS cells; not shown: VC155, C-terminal fragment of Venus) AFSNQTYPTIEPKPFLYVVGRKKMMDAQYKCYDRMQQLPAYQGEGPYCNRTWDGWLCWDDTPAGVLSYQFCPDYFPDFDPSEKVTKYCDEKGVWFKHPENNRTWSNYTMCNAFTPEKLKNAYVLYYLAIVGHSLSIFTLVISLGIFVFFRSLGCQRVTLHKNMFLTYILNSMIIIIHLVEVVPNGELVRRDPVSCKILHFFHQYMMACNYFWMLCEGIYLHTLIVVAVFTEKQRLRWYYLLGWGFPLVPTTIHAITRAVYFNDNCWLSVETHLLYIIHGPVMAALVVNFFFLLNIVRVLVTKMRETHEAESHMYLKAVKATMILVPLLGIQFVVFPWRPSNKMLGKIYDYVMHSLIHFQGFFVATIYCFCNNEVQTTVKRQWAQFKIQWNQRWGRRPSNRSARAAAAAAEAGDIPIYICHQELRNEPANNQGEESAEIIPLNIIEQESSA",53,
"APLNR-VC (receptor, human, UniProt P35414 1-380, looked up, whole, on cells; Adenovirus-expressed in U-2 OS cells; not shown: VC155, C-terminal fragment of Venus) MEEGGDFDNYYGADNQSECEYTDWKSSGALIPAIYMLVFLLGTTGNGLVLWTVFRSSREKRRSADIFIASLAVADLTFVVTLPLWATYTYRDYDWPFGTFFCKLSSYLIFVNMYASVFCLTGLSFDRYLAIVRPVANARLRLRVSGAVATAVLWVLAALLAMPVMVLRTTGDLENTTKVQCYMDYSMVATVSSEWAWEVGLGVSSTTVGFVVPFTIMLTCYFFIAQTIAGHFRKERIEGLRKRRRLLSIIVVLVVTFALCWMPYHLVKTLYMLGSLLHWPCDFDLFLMNIFPYCTCISYVNSCLNPFLYAFFDPRFRQACTSMLCCGQSRCAGTSHSSSGEKSASYSSGHSQGPGPNMGKGGEQMHEKSIPYSQETLVVD",63,63
"CHRM1-VC (receptor, human, UniProt P11229 1-460, looked up, whole, on cells; Adenovirus-expressed in U-2 OS cells; not shown: VC155, C-terminal fragment of Venus) MNTSAPPAVSPNITVLAPGKGPWQVAFIGITTGLLSLATVTGNLLVLISFKVNTELKTVNNYFLLSLACADLIIGTFSMNLYTTYLLMGHWALGTLACDLWLALDYVASNASVMNLLLISFDRYFSVTRPLSYRAKRTPRRAALMIGLAWLVSFVLWAPAILFWQYLVGERTVLAGQCYIQFLSQPIITFGTAMAAFYLPVTVMCTLYWRIYRETENRARELAALQGSETPGKGGGSSSSSERSQPGAEGSPETPPGRCCRCCRAPRLLQAYSWKEEEEEDEGSMESLTSSEGEEPGSEVVIKMPMVDPEAQAPTKQPPRSSPNTVKRPTKKGRDRAGKGQKPRGKEQLAKRKTFSLVKEKKAARTLSAILLAFILTWTPYNIMVLVSTFCKDCVPETLWELGYWLCYVNSTINPMCYALCNKAFRDTFRLLLLCRWDKRRWRKIPKRPGSVHRTPSRQC",24,
"GALR1-VC (receptor, human, UniProt P47211 1-349, looked up, whole, on cells; Adenovirus-expressed in U-2 OS cells; not shown: VC155, C-terminal fragment of Venus) MELAVGNLSEGNASWPEPPAPEPGPLFGIGVENFVTLVVFGLIFALGVLGNSLVITVLARSKPGKPRSTTNLFILNLSIADLAYLLFCIPFQATVYALPTWVLGAFICKFIHYFFTVSMLVSIFTLAAMSVDRYVAIVHSRRSSSLRVSRNALLGVGCIWALSIAMASPVAYHQGLFHPRASNQTFCWEQWPDPRHKKAYVVCTFVFGYLLPLLLICFCYAKVLNHLHKKLKNMSKKSEASKKKTAQTVLVVVVVFGISWLPHHIIHLWAEFGVFPLTPASFLFRITAHCLAYSNSSVNPIIYAFLSENFRKAYKQVFKCHIRKDSHLSDTKESKSRIDTPPSTNCTHV",60,60
"EDNRB-VC (receptor, human, UniProt P24530 27-442, looked up, whole, on cells; Adenovirus-expressed in U-2 OS cells; not shown: VC155, C-terminal fragment of Venus) EERGFPPDRATPLLQTAEIMTPPTKTLWPKGSNASLARSLAPAEVPKGDRTAGSPPRTISPPPCQGPIEIKETFKYINTVVSCLVFVLGIIGNSTLLRIIYKNKCMRNGPNILIASLALGDLLHIVIDIPINVYKLLAEDWPFGAEMCKLVPFIQKASVGITVLSLCALSIDRYRAVASWSRIKGIGVPKWTAVEIVLIWVVSVVLAVPEAIGFDIITMDYKGSYLRICLLHPVQKTAFMQFYKTAKDWWLFSFYFCLPLAITAFFYTLMTCEMLRKKSGMQIALNDHLKQRREVAKTVFCLVLVFALCWLPLHLSRILKLTLYNQNDPNRCELLSFLLVLDYIGINMASLNSCINPIALYLVSKRFKNCFKSCLCCWCQSFEEKQSLEEKQSCLKFKANDHGYDNFRSSNKYSSS",41,
"ADCYAP1R1-VC (receptor, human, UniProt P41586 21-468, looked up, whole, on cells; Adenovirus-expressed in U-2 OS cells; not shown: VC155, C-terminal fragment of Venus) MHSDCIFKKEQAMCLEKIQRANELMGFNDSSPGCPGMWDNITCWKPAHVGEMVLVSCPELFRIFNPDQVWETETIGESDFGDSNSLDLSDMGVVSRNCTEDGWSEPFPHYFDACGFDEYESETGDQDYYYLSVKALYTVGYSTSLVTLTTAMVILCRFRKLHCTRNFIHMNLFVSFMLRAISVFIKDWILYAEQDSNHCFISTVECKAVMVFFHYCVVSNYFWLFIEGLYLFTLLVETFFPERRYFYWYTIIGWGTPTVCVTVWATLRLYFDDTGCWDMNDSTALWWVIKGPVVGSIMVNFVLFIGIIVILVQKLQSPDMGGNESSIYLRLARSTLLLIPLFGIHYTVFAFSPENVSKRERLVFELGLGSFQGFVVAVLYCFLNGEVQAEIKRKWRSWKVNRYFAVDFKHRHPSLASSGVNGGTQLSILSKSSSQIRMSGLPADNLAT",23,
